# Results reported in PMC5811216, “Cleavage activates Dispatched for Sonic Hedgehog ligand release” (eLife, 2018).
# Where a chain is given by its changes, count along the chain named. In names and notes the source's numbering stands.
# B1: DispHA, wild-type murine Dispatched 1 with a carboxyl-terminal HA tag (natural protein, mouse, UniProt Q3TDN0 1-1521, looked up)
# chain: MAVISGSDSVLLSNGSISTSTSNPSPLSPSDGDLPAQHLGPRETPRTKASPNGCLQLNGTVKSSFLPLDNQRTPQTPTQCCHPCPYHHPVSSHSNHQECHPEAGLAASPALASCRMQPHSEYSASLCPNHSPVYQAAHCLQPSPSFCLHHPWPDHFQHQPVRQHLTIIRPSRPFKFPRSYAALLADWPVVVLGMCTLLIVVCALVGVLVPELPDFSDPLLGFEPRGTTIGQRLVTWNNMMRNTGYKATLANYPYKYAEEQARSHRDDRWSDDHHERERREVDWNFQKDSFFCDVPSDGYSRVVFASAGGETLWNLPAIKSMCDVDNSRIRSHPQFSDLCQRTTAVSCCPSWTLGNYIAILNNRSSCQKIVERDVSHTLKLLRTCAKHYQNGTLGPDCWDKAARRKDQLKCTNVPRKCTKYNAVYQILHYLVDKDFMTPKTADYAVPALKYSMLFSPTEKGESMMNIYLDNFENWNSSDGITTVTGIEFGIKHSLFQDYLLMDTVYPAIAIAIVLLIMCVYTKSMFITLMTMFAIISSLIVSYFLYRVVFNFEFFPFMNLTALIILVGIGADDAFVLCDVWNYTKFDKPRAETSEAVSVTLQHAALSMFVTSFTTAAAFYANYVSNITAIRCFGVYAGTAILVNYVLMVTWLPAVIVLHERYLLNIFTCFRKPQPQAYDKSCWAVLCQKCRRVLFAVSEASRIFFEKVLPCIVIKFRYLWLIWFLALTVGGAYIVCVNPKMKLPSLELSEFQVFRSSHPFERYDAEFKKLFMFERVHHGEELHMPITVIWGVSPEDSGDPLNPKSKGELTLDSTFNIASPASQAWILHFCQKLRNQTFFHQTEQQDFTSCFIETFKQWMENQDCDEPALYPCCSHCSFPYKQEVFELCIKKAIMELDRSTGYHLNNKTPGPRFDINDTIRAVVLEFQSTFLFTLAYEKMQQFYKEVDSWISHELSSAPEGLSRGWFVSNLEFYDLQDSLSDGTLIAMGLSVAVAFSVMLLTTWNIIISLYAIVSIAGTIFVTVGSLVLLGWELNVLESVTISVAVGLSVDFAVHYGVAYRLAPDPDREGKVIFSLSRMGSAIAMAALTTFVAGAMMMPSTVLAYTQLGTFMMLVMCVSWAFATFFFQCLCRCLGPQGTCGQIPFPTKLQCSPFSHTLSARPGDRGPSKTHAASAYSVDARGQKSQLEHEFYELQPLASHSCTSSEKTTYEEPHTCSEFFNGQAKNLRMPVPAAYSSELTKSPSSEPGSALLQSCLEQDTVCHFSLNPRCNCRDAYTHLQYGLPEIHCQQMGDSLCHKCASTAGGFVQIQSSVAPLKASHQAAEGLLHPAQHMLPPGMQNSRPRNFFLHSVQHFQAQENLGRTSTHSTDERLPRTAELSPPPSDSRSTESFQRACCHPENNQRRLCKSRDPGDTEGSGGTKSKVSGLPNQTDKEEKQVEPSLLQTDETVNSEHLNHNESNFTFSHLPGEAGCRSCPNSPQSCRSIMRSKCGTEDCQTPNLEANVPAVPTHSDLSGESLLIKTL
# notes: Dispatched 1 (Disp), mouse; Disp1 cDNA from RIKEN introduced into Not1-Xba1 sites of pCDNA3; The lysate holds both Disp175 and the cleaved Disp145; On the native gel there was a ~480 kDa fraction (trimer) and ~750 kDa fractions; also called pCDNA3 Dispatched WT HA; pCDNA-DispHA; source: NIH3T3, transfected, in lysate (1% DDM); not shown: HA, C-terminal, kept
# B2: DispCSHA, cleavage site mutant (R279A, E280A) of murine Dispatched 1 with a carboxyl-terminal HA tag (natural protein, mouse, UniProt Q3TDN0 1-1521, looked up)
# chain: B1 chain with R279A, E280A
# notes: Dispatched 1 (Disp), mouse; Disp1 cDNA from RIKEN in pCDNA3; convertase motif disrupted by R279A, E280A; also called DispHA-CS; pCDNA-DispCSHA; source: NIH3T3, transfected, in lysate (1% DDM); not shown: HA, C-terminal, kept
# Molecular target: the molecule itself
# Assay: native gel or EMSA; NIH3T3 lysates in NativePAGE sample buffer with 1% DDM, Benzonase treated; 4-20% NativePAGE Bis-Tris gel; anti-HA western blot
row,Protein,stoichiometry N
1,B1,3
2,B2,3
